Measurements: US20220119534A1 (DRAGONFLY THERAPEUTICS, published 2022)
“And” between values parts separate entries of the source, which are not always exact repeats. Equal values may be shown once.

Tests used:
mFc-cNKG2D = biological target: T1, mFc-cNKG2D (cynomolgus monkey, UniProt P61252 73-216); assay: SPR Biacore 37 C; mFc-tagged cyno NKG2D dimer, TriNKET as analyte; 1:1 kinetic fit
T1 construct: extracellular domain; Made in house (Dragonfly Tx); also called recombinant cyno NKG2D extracellular domain (ECD); mFc-tagged cyno NKG2D dimer; not shown: mouse Fc tag
T1 sequence (looked up): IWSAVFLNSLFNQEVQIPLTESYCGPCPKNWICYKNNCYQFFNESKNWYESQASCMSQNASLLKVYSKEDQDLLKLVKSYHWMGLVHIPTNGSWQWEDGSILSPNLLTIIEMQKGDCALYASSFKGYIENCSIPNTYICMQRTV

mFc-hNKG2D [1] = biological target: T2, mFc-hNKG2D (human, UniProt P26718 73-216); assay: SPR Biacore 8K 37 C; mFc-hNKG2D captured on anti-mFc chip, TriNKET as analyte; 1:1 kinetic fit; after 4 wks 40 C in HST pH 6.0
T2 construct: extracellular domain; Made in house (Dragonfly Tx); the order of tag and ECD follows the name mFc-hNKG2D; also called mFc-tagged human NKG2D; not shown: mouse Fc tag
T2 sequence (looked up): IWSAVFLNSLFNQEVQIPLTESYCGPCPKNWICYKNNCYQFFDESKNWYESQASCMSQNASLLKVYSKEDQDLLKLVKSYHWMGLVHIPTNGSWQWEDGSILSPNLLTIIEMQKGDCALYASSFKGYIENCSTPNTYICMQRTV

[2] = biological target: T3, Human CD16a V158 (FcγRIIIa V158) (human, UniProt P08637 17-208, biotinylated (site not stated)); assay: SPR; biotinylated CD16a V158 captured on SA chip, TriNKET as analyte; 1:1 kinetic fit; after low pH hold, n=3
T3 construct: V158 is the allele name in mature numbering; also called hCD16aV; hCD16a V158
T3 sequence (P08637 17-208 F176V limits assumed): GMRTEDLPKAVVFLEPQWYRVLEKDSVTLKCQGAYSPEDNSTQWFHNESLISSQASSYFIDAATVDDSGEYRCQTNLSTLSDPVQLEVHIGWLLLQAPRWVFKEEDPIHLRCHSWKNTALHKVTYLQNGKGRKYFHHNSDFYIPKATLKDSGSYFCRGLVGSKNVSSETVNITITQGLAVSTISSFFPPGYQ

[3] = biological target: T3, Human CD16a V158 (FcγRIIIa V158); assay: SPR; biotinylated CD16a V158 captured on SA chip, TriNKET as analyte; 1:1 kinetic fit; control sample
Method: Each injection cycle consisted of association, dissociation and regeneration steps. Association consisted of 150 seconds of ligand injection, dissociation was monitored for 300 seconds and then the surface was regenerated between cycles with 2 mM sodium hydroxide injected for 5 seconds. All steps were executed at a flow rate of 30 μL/min. 1× HBS-EP+ buffer solution was used as a running/sample dilution buffer. Data were analyzed using Biacore 8K Insight evaluation software (GE Healthcare).

mFc-hNKG2D [4] = biological target: T2, mFc-hNKG2D; assay: SPR Biacore 8K 37 C; mFc-hNKG2D captured on anti-mFc chip, TriNKET as analyte; steady state fit; control, n=3
Human CD16a V158 = biological target: T4, Human CD16a V158 (human, UniProt P08637 17-208, biotinylated); assay: SPR, hCD16a V158 captured, kinetic fit; average for AB0192
T4 construct: Bought recombinant receptor; also called hCD16a (V158); hFcγRIIIa V158
T4 sequence (P08637 17-208 F176V limits assumed): as above

[5] = biological target: T5, recombinant cynomolgus CD16 (cynomolgus monkey, UniProt Q8SPW2 17-208, biotinylated); assay: SPR 25C, steady state
T5 construct: also called cFcγRIII; cyno CD16
T5 sequence (Q8SPW2 17-208 limits assumed): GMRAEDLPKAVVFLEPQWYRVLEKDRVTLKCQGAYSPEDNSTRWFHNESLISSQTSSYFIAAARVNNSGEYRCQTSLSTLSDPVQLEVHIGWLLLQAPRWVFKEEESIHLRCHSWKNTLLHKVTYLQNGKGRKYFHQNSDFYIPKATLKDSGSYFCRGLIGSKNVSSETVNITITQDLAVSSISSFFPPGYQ
From the text: Human and cyno CD64, high and low affinity alleles of CD16a (V158 and F158, respectively), two alleles of CD32a (H131 and R131), CD16b, CD32b and cynomolgus CD16 were captured via biotin on a primed Biacore chip, prepared according to the manufacturer's instructions.

recombinant human FcRn = biological target: T6, recombinant human FcRn (human, UniProt P55899 24-297; P61769 21-119); assay: SPR 25C, pH 6.0, steady state; pH 6.0; fourth replicate
T6 construct: also called hFcRn
T6 sequence (P55899 24-297 limits assumed, chain 1 of 2): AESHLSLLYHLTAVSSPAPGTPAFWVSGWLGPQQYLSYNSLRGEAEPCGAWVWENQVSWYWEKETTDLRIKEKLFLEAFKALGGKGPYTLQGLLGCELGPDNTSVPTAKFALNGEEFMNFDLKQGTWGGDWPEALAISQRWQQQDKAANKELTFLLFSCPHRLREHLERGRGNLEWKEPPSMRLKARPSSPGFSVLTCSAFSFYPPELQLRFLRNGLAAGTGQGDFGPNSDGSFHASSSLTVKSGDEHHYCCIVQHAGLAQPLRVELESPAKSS
T6 sequence (P61769 21-119 limits assumed, chain 2 of 2): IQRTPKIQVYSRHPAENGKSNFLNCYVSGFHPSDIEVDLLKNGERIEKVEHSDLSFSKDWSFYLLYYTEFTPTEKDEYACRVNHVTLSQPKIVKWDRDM

[6] = biological target: T7, recombinant human CD32a H131 (human, UniProt P12318 36-218, limits assumed, biotinylated); assay: SPR 25C, steady state
T7 construct: also called FcγRIIa H131
T7 sequence (looked up): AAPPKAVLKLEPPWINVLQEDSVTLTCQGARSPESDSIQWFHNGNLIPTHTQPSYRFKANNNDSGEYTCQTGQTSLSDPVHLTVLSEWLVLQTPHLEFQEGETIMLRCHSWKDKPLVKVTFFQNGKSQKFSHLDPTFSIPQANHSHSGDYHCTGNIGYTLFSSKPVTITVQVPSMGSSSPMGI

B1: F3'-1602 TriNKET (bispecific antibody, human IgG1, kappa)
chain: QLQLQESGPGLVKPSETLSLTCTVSGFSLTNYGLHWIRQPPGKCLEWIGVIWSGGKTDYNPSLKSRVTISKDTSKNQFSLKLSSVQAADTAVYYCAKYDYDDSLDYWGQGTLVTVSSGGGGSGGGGSGGGGSGGGGSDIQMTQSPSSLSASVGDRVTITCHASQNINFWLSWYQQKPGKAPKLLIYEASNLHTGVPSRFSGSGSGTRFTLTISSLQPEDIATYYCQQSHSYPLTFGCGTKLEIKGSDKTHTCPPCPAPELLGGPSVFLFPPKPKDTLMISRTPEVTCVVVDVSHEDPEVKFNWYVDGVEVHNAKTKPREEQYNSTYRVVSVLTVLHQDWLNGKEYKCKVSNKALPAPIEKTISKAKGQPREPRVYTLPPCRDELTKNQVSLTCLVKGFYPSDIAVEWESNGQPENNYKTTPPVLVSDGSFTLYSKLTVDKSRWQQGNVFSCSVMHEALHNHYTQKSLSLSPG
heavy: EVQLVESGGGLVKPGGSLRLSCAASGFTFSSYSMNWVRQAPGKGLEWVSSISSSSSYIYYADSVKGRFTISRDNAKNSLYLQMNSLRAEDTAVYYCARGAPIGAAAGWFDPWGQGTLVTVSSASTKGPSVFPLAPSSKSTSGGTAALGCLVKDYFPEPVTVSWNSGALTSGVHTFPAVLQSSGLYSLSSVVTVPSSSLGTQTYICNVNHKPSNTKVDKKVEPKSCDKTHTCPPCPAPELLGGPSVFLFPPKPKDTLMISRTPEVTCVVVDVSHEDPEVKFNWYVDGVEVHNAKTKPREEQYNSTYRVVSVLTVLHQDWLNGKEYKCKVSNKALPAPIEKTISKAKGQPREPQVCTLPPSRDELTENQVSLTCLVKGFYPSDIAVEWESNGQPENNYKTTPPVLDSDGSFFLYSWLTVDKSRWQQGNVFSCSVMHEALHNHYTQKSLSLSPG
light: DIQMTQSPSSVSASVGDRVTITCRASQGISSWLAWYQQKPGKAPKLLIYAASSLQSGVPSRFSGSGSGTDFTLTISSLQPEDFATYYCQQGVSFPRTFGGGTKVEIKRTVAAPSVFIFPPSDEQLKSGTASVVCLLNNFYPREAKVQWKVDNALQSGNSQESVTEQDSKDSTYSLSSTLTLSKADYEKHKVYACEVTHQGLSSPVTKSFNRGEC
notes: Trispecific F3' format: CLEC12A scFv-Fc paired with NKG2D Fab-Fc; Stressed and control samples of the stability studies are the same molecule; also called AB0237
koff (mFc-cNKG2D): 0.147 s⁻¹ and 0.136 s⁻¹ and 0.145 s⁻¹ and 0.135 s⁻¹
kon (mFc-cNKG2D): 177000 M⁻¹ s⁻¹ and 164000 M⁻¹ s⁻¹ and 156000 M⁻¹ s⁻¹ and 176000 M⁻¹ s⁻¹
Kd (mFc-hNKG2D [1]): 762 nM
koff (mFc-hNKG2D [1]): 0.0986 s⁻¹
kon (mFc-hNKG2D [1]): 129000 M⁻¹ s⁻¹
Kd [2]: 210 nM
koff [2]: 0.0229 s⁻¹
kon [2]: 109000 M⁻¹ s⁻¹
Kd [3]: 212 nM
koff [3]: 0.024 s⁻¹
kon [3]: 113000 M⁻¹ s⁻¹
Kd (mFc-hNKG2D [4]): 710 nM

B2: AB0192 TriNKET (other)
chain: EVQLVESGGGVVQPGGSLRLSCAASGFTFNAFGMHWVRQAPGKCLEWVAFISSGSTSIYYANTVKGRFTISRDNSKNTLYLQMNSLRAEDTAVYYCARDGYPTGGAMDYWGQGTSVTVSSGGGGSGGGGSGGGGSGGGGSDIQMTQSPSSLSASVGDRVTITCKASQDIYNYLSWFQQKPGKAPKPLIYRANILVSGVPSRFSGSGSGQDYTFTISSLQPEDIATYYCLQFDAFPFTFGCGTKLEIKGSDKTHTCPPCPAPELLGGPSVFLFPPKPKDTLMISRTPEVTCVVVDVSHEDPEVKFNWYVDGVEVHNAKTKPREEQYNSTYRVVSVLTVLHQDWLNGKEYKCKVSNKALPAPIEKTISKAKGQPREPRVYTLPPCRDELTKNQVSLTCLVKGFYPSDIAVEWESNGQPENNYKTTPPVLVSDGSFTLYSKLTVDKSRWQQGNVFSCSVMHEALHNHYTQKSLSLSPG
heavy: EVQLVESGGGLVKPGGSLRLSCAASGFTFSSYSMNWVRQAPGKGLEWVSSISSSSSYIYYADSVKGRFTISRDNAKNSLYLQMNSLRAEDTAVYYCARGAPIGAAAGWFDPWGQGTLVTVSSASTKGPSVFPLAPSSKSTSGGTAALGCLVKDYFPEPVTVSWNSGALTSGVHTFPAVLQSSGLYSLSSVVTVPSSSLGTQTYICNVNHKPSNTKVDKKVEPKSCDKTHTCPPCPAPELLGGPSVFLFPPKPKDTLMISRTPEVTCVVVDVSHEDPEVKFNWYVDGVEVHNAKTKPREEQYNSTYRVVSVLTVLHQDWLNGKEYKCKVSNKALPAPIEKTISKAKGQPREPQVCTLPPSRDELTENQVSLTCLVKGFYPSDIAVEWESNGQPENNYKTTPPVLDSDGSFFLYSWLTVDKSRWQQGNVFSCSVMHEALHNHYTQKSLSLSPG
light: DIQMTQSPSSVSASVGDRVTITCRASQGISSWLAWYQQKPGKAPKLLIYAASSLQSGVPSRFSGSGSGTDFTLTISSLQPEDFATYYCQQGVSFPRTFGGGTKVEIKRTVAAPSVFIFPPSDEQLKSGTASVVCLLNNFYPREAKVQWKVDNALQSGNSQESVTEQDSKDSTYSLSSTLTLSKADYEKHKVYACEVTHQGLSSPVTKSFNRGEC
notes: the condition stands under assay; also called AB0192 Lot AB0192-005
Kd (Human CD16a V158): 178 nM
koff (Human CD16a V158): 0.0199 s⁻¹
kon (Human CD16a V158): 112000 M⁻¹ s⁻¹

B3: F3'-1602 TriNKET (other)
chain: QLQLQESGPGLVKPSETLSLTCTVSGFSLTNYGLHWIRQPPGKCLEWIGVIWSGGKTDYNPSLKSRVTISKDTSKNQFSLKLSSVQAADTAVYYCAKYDYDDSLDYWGQGTLVTVSSGGGGSGGGGSGGGGSGGGGSDIQMTQSPSSLSASVGDRVTITCHASQNINFWLSWYQQKPGKAPKLLIYEASNLHTGVPSRFSGSGSGTRFTLTISSLQPEDIATYYCQQSHSYPLTFGCGTKLEIKGSDKTHTCPPCPAPELLGGPSVFLFPPKPKDTLMISRTPEVTCVVVDVSHEDPEVKFNWYVDGVEVHNAKTKPREEQYNSTYRVVSVLTVLHQDWLNGKEYKCKVSNKALPAPIEKTISKAKGQPREPRVYTLPPCRDELTKNQVSLTCLVKGFYPSDIAVEWESNGQPENNYKTTPPVLVSDGSFTLYSKLTVDKSRWQQGNVFSCSVMHEALHNHYTQKSLSLSPG
heavy: EVQLVESGGGLVKPGGSLRLSCAASGFTFSSYSMNWVRQAPGKGLEWVSSISSSSSYIYYADSVKGRFTISRDNAKNSLYLQMNSLRAEDTAVYYCARGAPIGAAAGWFDPWGQGTLVTVSSASTKGPSVFPLAPSSKSTSGGTAALGCLVKDYFPEPVTVSWNSGALTSGVHTFPAVLQSSGLYSLSSVVTVPSSSLGTQTYICNVNHKPSNTKVDKKVEPKSCDKTHTCPPCPAPELLGGPSVFLFPPKPKDTLMISRTPEVTCVVVDVSHEDPEVKFNWYVDGVEVHNAKTKPREEQYNSTYRVVSVLTVLHQDWLNGKEYKCKVSNKALPAPIEKTISKAKGQPREPQVCTLPPSRDELTENQVSLTCLVKGFYPSDIAVEWESNGQPENNYKTTPPVLDSDGSFFLYSWLTVDKSRWQQGNVFSCSVMHEALHNHYTQKSLSLSPG
light: DIQMTQSPSSVSASVGDRVTITCRASQGISSWLAWYQQKPGKAPKLLIYAASSLQSGVPSRFSGSGSGTDFTLTISSLQPEDFATYYCQQGVSFPRTFGGGTKVEIKRTVAAPSVFIFPPSDEQLKSGTASVVCLLNNFYPREAKVQWKVDNALQSGNSQESVTEQDSKDSTYSLSSTLTLSKADYEKHKVYACEVTHQGLSSPVTKSFNRGEC
notes: CLEC12A scFv-Fc, NKG2D A49MI Fab-Fc, human IgG1 Fc; also called AB0237
Kd [5]: 315 nM and 294 nM and 302 nM
Kd (recombinant human FcRn): 1600 nM
Kd [6]: 900 nM and 800 nM
